B1: Hairpin Ribozyme (parent)
chain: GUCCUCUUUCACGUGCGCGUGAAAGAGAGAAGUGAACCAGAGAAACACACGUUGUGGUAUAUUACCUGGUA

Variants of: B1
Assay: self-cleavage, relative activity (ratio to wild type); higher = more cleavage; co-transcriptional

Variant | self-cleavage
GUCCUCUUUAACGUGCGCGUGAAAGAGAGAAGUGAACCAGAGAAACACACGUUGUGGUAUAUUACCUGUUA [C10A G69U] | 0.14
GUCCUCUUUAACGUGCGCGUGAAAGAGAGAAGUGAACCAGAGAUACACACGUUGUGGUAUAUUACCUGGUA [C10A A44U] | 0.139
GUCCUCUUUAACGUGCGCGUGAAAGAGAGAAGUGAACCAGAGACACACACGUUGUGGUAUAUUACCUGGUA [C10A A44C] | 0.141
GUCCUCUUGCACGUGCGCGCGAAAGAGAGAAGUGAACCAGAGAAACACACGUUGUGGUAUAUUACCUGGUA [U9G U20C] | 0.682
GUCCUCUUGCACGUGCGCGAGAAAGAGAGAAGUGAACCAGAGAAACACACGUUGUGGUAUAUUACCUGGUA [U9G U20A] | 0.531
GUCCUCUUUAACGUGCGCGUGAAAGAGAGAAGUGAACCAGAGAAACACACGUUGUGGUAUAUUACCUGGUG [C10A A71G] | 0.915
GUCCUCUUUAACGUGCGCGUGAAAGAGAGAAGUGAACCAGAGAAACACACGUUGUGGUAUAUUACCUGGUC [C10A A71C] | 1.16
GUCCUCUUUAACGUGCGCGUGAAAGAGAGAAGUGAACCAGAGAAACACACGUUGUGGUAUAUUACCUGGAA [C10A U70A] | 0.498
GUCCUCUUGCACGUGCGCGUGAAAGAGAGAAGUGAACCAGAGAAACACACGUUGUGGUAUAUGACCUGGUA [U9G U63G] | 0.206
GUCCUCUUGCACGUGCGCGUGAAAGAGAGAAGUGAACCAGAGAAACACACGUUGUGGUAUAUCACCUGGUA [U9G U63C] | 0.094
GUCCUCUUUAACGUGCGCGUGAAAGAGAGAAGGGAACCAGAGAAACACACGUUGUGGUAUAUUACCUGGUA [C10A U33G] | 0.114
GUCCUCUUUAACGUGCGCGUGAAAGAGAGAAGUGAACCAGAGAAACACACGUUGUGGUGUAUUACCUGGUA [C10A A59G] | 0.149
GUCCUCUUUAACGUGCGCGUGAAAGAGAGAAGUGAACCAGAGAAACACACGUUGUGGUCUAUUACCUGGUA [C10A A59C] | 0.192
GUCCUCUUUAACGUGCGCGUGAAAGAGAGAAGUGAACCAGAGAAACACUCGUUGUGGUAUAUUACCUGGUA [C10A A49U] | 0.172
GUCCUCUUUAACGUGCGCGUGAAAGAGAGAAGUGAACCAGAGAAACCCACGUUGUGGUAUAUUACCUGGUA [C10A A47C] | 0.334
GUCCUCUUUAACGUGCGCGUGAAAGAGAGAAGUGAACCAGAGAAACACACGUUGUGCUAUAUUACCUGGUA [C10A G57C] | 0.174
GUCCUCUUUAACGUGCGCGUGAAAGAGAGAAGUGAACCAGAGAAACACACGUUGUGUUAUAUUACCUGGUA [C10A G57U] | 0.221
GUCCUCUUUAACGUGCGCGUGAAAGAGAGAAGUGAACCAGAGAAACACACGUAGUGGUAUAUUACCUGGUA [C10A U53A] | 0.678
GUCCUCUUUAACGUGCGCGUGAAAGAGAGAAGUGAACCAGAGAAACACACGUCGUGGUAUAUUACCUGGUA [C10A U53C] | 0.888
GUCCUCUUUAACGUGCGCGUGAAAGAGUGAAGUGAACCAGAGAAACACACGUUGUGGUAUAUUACCUGGUA [C10A A28U] | 0.483
GUCCUCUUUAACGUGCGCGUGAAAGAGGGAAGUGAACCAGAGAAACACACGUUGUGGUAUAUUACCUGGUA [C10A A28G] | 1.09
GUCCUCUUUAACGUGCGCGUGAAAGAGAGAAGUGAACCAGAGCAACACACGUUGUGGUAUAUUACCUGGUA [C10A A43C] | 0.0904
GUCCUCUUUAACGUGCGCGUGAAAGAGAGAAGUGAACCAGAGGAACACACGUUGUGGUAUAUUACCUGGUA [C10A A43G] | 0.132
GUCCUCUUUAACGUGCGCGUGAAAGAGAGAAGUGAACCAGAGAAACACACGUUGUGGUAUAUUAACUGGUA [C10A C65A] | 0.556
GUCCUCUUUAACGUGCGCGUGAAAGAGAGAAGUGAACCAGAGAAACACACGUUGUGGUAUAUUAGCUGGUA [C10A C65G] | 0.388
GUCCUCUUGCACGUGCGCGUGAAAGAGAGAAGUGAACCAGAGAAACACACGUUGUGGUAUAUUACCGGGUA [U9G U67G] | 0.279

Variant | self-cleavage
GUCCUCUUUAUCGUGCGCGUGAAAGAGAGAAGUGAACCAGAGAAACACACGUUGUGGUAUAUUACCUGGUA [C10A A11U] | 0.41
GUCCUCUUUAACGUGCGCGUGAAAGAGAGAAGUGAACCAGAGAAACACACGUUGUGGGAUAUUACCUGGUA [C10A U58G] | 0.592
GUCCUCUUUAACGUGCGCGUGAAAGAGAGAAGUGAACCAGAGAAACACACGUUGUGGUAUAAUACCUGGUA [C10A U62A] | 0.238
GUCCUCUUUAACGUGCGCGUGAAAGAGAGAAGUGAACCAGACAAACACACGUUGUGGUAUAUUACCUGGUA [C10A G42C] | 0.235
GUCCUCUUUAACGUGCGCGUGAAAGAGAGAAGUGAACCAGAUAAACACACGUUGUGGUAUAUUACCUGGUA [C10A G42U] | 0.268
GUCCUCUUUAACGUGCGCGUGAAAGAGAGAAGUGAACCAGAGAAACACACUUUGUGGUAUAUUACCUGGUA [C10A G51U] | 0.678
GUCCUCUUUAACGUGCGCGUGAAAGAGAGAAGUGAACCAGAGAAACACACGUUGUGGUAUAUCACCUGGUA [C10A U63C] | 0.207
GUCCUCUUUAACGUGCGCGUGAAAGAGAGAAGUGAACCAGAGAAACACACGUUGUGGUAUAUGACCUGGUA [C10A U63G] | 0.152
GUCCUCUUUAACGUGCGCGUGAAAGAGAGAAGUGAAACAGAGAAACACACGUUGUGGUAUAUUACCUGGUA [C10A C37A] | 0.271
GUCCUCUUGCACGUGCGCGUGAAAGAGAGAAGUGAACCAGAGAAACACACGUCGUGGUAUAUUACCUGGUA [U9G U53C] | 0.736
GUCCUCUUGCACGUGCGCGUGAAAGAGAGAAGUGAACCAGAGAAACACACGUAGUGGUAUAUUACCUGGUA [U9G U53A] | 0.672
GUCCUCUUUAACGUGCGCGUGAAAGAGAGAAGUGAACCAGGGAAACACACGUUGUGGUAUAUUACCUGGUA [C10A A41G] | 0.694
GUCCUCUUUAACGUGCGCGUGAAAGAGAGAAGUGAACCAGAGAAACACACGUUGUGGUAUAUUCCCUGGUA [C10A A64C] | 0.185
GUCCUCUUGCACGAGCGCGUGAAAGAGAGAAGUGAACCAGAGAAACACACGUUGUGGUAUAUUACCUGGUA [U9G U14A] | 0.612
GUCCUCUUUAACGUGCGAGUGAAAGAGAGAAGUGAACCAGAGAAACACACGUUGUGGUAUAUUACCUGGUA [C10A C18A] | 0.708
GUCCUCUUUAACGUGCGGGUGAAAGAGAGAAGUGAACCAGAGAAACACACGUUGUGGUAUAUUACCUGGUA [C10A C18G] | 0.791
GUCCUCUUUAACGUGCGUGUGAAAGAGAGAAGUGAACCAGAGAAACACACGUUGUGGUAUAUUACCUGGUA [C10A C18U] | 0.809
GUCCUCUUUAACGUGCGCGUGAAAGAGAGAAGUGAACCCGAGAAACACACGUUGUGGUAUAUUACCUGGUA [C10A A39C] | 0.463
GUCCUCUUUAACGUGCGCGUGAAAGAGAGAAGUGAACCAGAGAAACACACGAUGUGGUAUAUUACCUGGUA [C10A U52A] | 0.783
GUCCUCUUUAACGUGCGCGUGAAAGAGAGAAGUGAACCAGAGAAACACACGCUGUGGUAUAUUACCUGGUA [C10A U52C] | 0.81
GUCCUCUUUAACCUGCGCGUGAAAGAGAGAAGUGAACCAGAGAAACACACGUUGUGGUAUAUUACCUGGUA [C10A G13C] | 0.411
GUCCUCUUUAACAUGCGCGUGAAAGAGAGAAGUGAACCAGAGAAACACACGUUGUGGUAUAUUACCUGGUA [C10A G13A] | 0.501
GUCCUCUUGCACGUGCGCGUGAAAGAGAGAAGUGAACCAGAGAAACACACGUUGUGGUAUACUACCUGGUA [U9G U62C] | 0.323
GUCCUCUUUAACGUGCGCGUGAAAGAGAGAAGUGAACCAAAGAAACACACGUUGUGGUAUAUUACCUGGUA [C10A G40A] | 0.219
GUCCUCUUUAACGUGCGCGUGAAAGAGAGAAGUGAACCAUAGAAACACACGUUGUGGUAUAUUACCUGGUA [C10A G40U] | 0.141
GUCCUCUUGCACGUGCGCGUGAAAGAGAGAAGUGAACCAGAGAAACACACGUUGUGGUAUAUUACCUGGAA [U9G U70A] | 0.812

Variant | self-cleavage
GUCCUCUUGCACGUGCGCGUGAAAGAGAGAAGUGAACCAGAGAAACACACGUUGUGGUAUAUUACCUGGCA [U9G U70C] | 0.72
GUCCUCUUUAACGUGCGCGUGAAAGAGAGAUGUGAACCAGAGAAACACACGUUGUGGUAUAUUACCUGGUA [C10A A31U] | 0.112
GUCCUCUUUAACGUGCGCGUGAAAGAGAGAGGUGAACCAGAGAAACACACGUUGUGGUAUAUUACCUGGUA [C10A A31G] | 0.533
GUCCUCUUUAACGUGCGCGUGAAAGAGAGAAGUGAACCAGAGAAACACACGUUGUGGUAUAUUACCUUGUA [C10A G68U] | 0.201
GUCCUCUUUAACGUGCGCGUGAAAGAGAGAAGUGAACCAGAGAAACACACGUUGUGGUAUAUUACCUGGUA [C10A] | 0.722
GUCCUCUUUGACGUGCGCGUGAAAGAGAGAAGUGAACCAGAGAAACACACGUUGUGGUAUAUUACCUGGUA [C10G] | 0.737
GUCCUCUUUAACGUGCGCGUGAAAGAGAGAAAUGAACCAGAGAAACACACGUUGUGGUAUAUUACCUGGUA [C10A G32A] | 0.161
GUCCUCUUUAACGUGCGCCUGAAAGAGAGAAGUGAACCAGAGAAACACACGUUGUGGUAUAUUACCUGGUA [C10A G19C] | 0.509
GUCCUCUUUAACGUGCGCAUGAAAGAGAGAAGUGAACCAGAGAAACACACGUUGUGGUAUAUUACCUGGUA [C10A G19A] | 0.761
GUCCUCUUUAACGUGCCCGUGAAAGAGAGAAGUGAACCAGAGAAACACACGUUGUGGUAUAUUACCUGGUA [C10A G17C] | 0.489
GUCCUCUUUAACGUGCGCGUGAAAGAGAGAAGUGAACCAGAGAAACACACGUUGUGGUAUAUUACCCGGUA [C10A U67C] | 0.188
GUCCUCUUUAACGUGCGCGUGAAAGAGAGAAGUGAACCAGAGAAACACACGUUGUGGUAUAUUACCGGGUA [C10A U67G] | 0.171
GUCCUCUUUAACGUGGGCGUGAAAGAGAGAAGUGAACCAGAGAAACACACGUUGUGGUAUAUUACCUGGUA [C10A C16G] | 0.527
GUCCUCUUUAACGUGAGCGUGAAAGAGAGAAGUGAACCAGAGAAACACACGUUGUGGUAUAUUACCUGGUA [C10A C16A] | 0.907
GUCCUCUUGCACGUGCGCGUGAAAGAGAGAAGUGAACCAGAGAAACACACGUUGUGGAAUAUUACCUGGUA [U9G U58A] | 0.549
GUCCUCUUUAACGCGCGCGUGAAAGAGAGAAGUGAACCAGAGAAACACACGUUGUGGUAUAUUACCUGGUA [C10A U14C] | 0.888
GUCCUCUUUAACGUGCGCGCGAAAGAGAGAAGUGAACCAGAGAAACACACGUUGUGGUAUAUUACCUGGUA [C10A U20C] | 0.732
GUCCUCUUUGGCGUGCGCGUGAAAGAGAGAAGUGAACCAGAGAAACACACGUUGUGGUAUAUUACCUGGUA [C10G A11G] | 0.655
GUCCUCUUUAACGUGCGCGUGAAAGAGAGAAGUGAACCAGAGAAACACAUGUUGUGGUAUAUUACCUGGUA [C10A C50U] | 0.349
GUCCUCUUUAACGUGCGCGUGAAAGAGAGAAGUGAACCAGAGAAACACACGUUAUGGUAUAUUACCUGGUA [C10A G54A] | 0.338
GUCCUCUUUAACGUGCGCGUGAAAGAGAGAAGUGAACCAGAGAAACACACGUUUUGGUAUAUUACCUGGUA [C10A G54U] | 0.426
GUCCUCUUGCACGUGCGCGUGAAAGAGAGAAGUGAACCAGAGAAACACACGUUGGGGUAUAUUACCUGGUA [U9G U55G] | 0.0748
GUCCUCUUGCACGUGCGCGUGAAAGAGAGAAGGGAACCAGAGAAACACACGUUGUGGUAUAUUACCUGGUA [U9G U33G] | 0.145
GUCCUCUUUAACGUGCGCGUGAAAGGGAGAAGUGAACCAGAGAAACACACGUUGUGGUAUAUUACCUGGUA [C10A A26G] | 0.663

Source: the RNAGym collection of RNA variant scans (doi:10.7554/elife.80360)
